Data reported in patent US11807877.

Assays:
[1] = target: Streptococcus pyogenes Cas9, wild-type (Streptococcus pyogenes) (UniProt Q99ZW2); test: cell-based or functional assay
[2] = target: Staphylococcus aureus Cas9, wild-type (Staphylococcus aureus) (UniProt J7RUA5); test: cell-based or functional assay
UniProt J7RUA5, sequence (J7RUA5 2-1053, tags left off): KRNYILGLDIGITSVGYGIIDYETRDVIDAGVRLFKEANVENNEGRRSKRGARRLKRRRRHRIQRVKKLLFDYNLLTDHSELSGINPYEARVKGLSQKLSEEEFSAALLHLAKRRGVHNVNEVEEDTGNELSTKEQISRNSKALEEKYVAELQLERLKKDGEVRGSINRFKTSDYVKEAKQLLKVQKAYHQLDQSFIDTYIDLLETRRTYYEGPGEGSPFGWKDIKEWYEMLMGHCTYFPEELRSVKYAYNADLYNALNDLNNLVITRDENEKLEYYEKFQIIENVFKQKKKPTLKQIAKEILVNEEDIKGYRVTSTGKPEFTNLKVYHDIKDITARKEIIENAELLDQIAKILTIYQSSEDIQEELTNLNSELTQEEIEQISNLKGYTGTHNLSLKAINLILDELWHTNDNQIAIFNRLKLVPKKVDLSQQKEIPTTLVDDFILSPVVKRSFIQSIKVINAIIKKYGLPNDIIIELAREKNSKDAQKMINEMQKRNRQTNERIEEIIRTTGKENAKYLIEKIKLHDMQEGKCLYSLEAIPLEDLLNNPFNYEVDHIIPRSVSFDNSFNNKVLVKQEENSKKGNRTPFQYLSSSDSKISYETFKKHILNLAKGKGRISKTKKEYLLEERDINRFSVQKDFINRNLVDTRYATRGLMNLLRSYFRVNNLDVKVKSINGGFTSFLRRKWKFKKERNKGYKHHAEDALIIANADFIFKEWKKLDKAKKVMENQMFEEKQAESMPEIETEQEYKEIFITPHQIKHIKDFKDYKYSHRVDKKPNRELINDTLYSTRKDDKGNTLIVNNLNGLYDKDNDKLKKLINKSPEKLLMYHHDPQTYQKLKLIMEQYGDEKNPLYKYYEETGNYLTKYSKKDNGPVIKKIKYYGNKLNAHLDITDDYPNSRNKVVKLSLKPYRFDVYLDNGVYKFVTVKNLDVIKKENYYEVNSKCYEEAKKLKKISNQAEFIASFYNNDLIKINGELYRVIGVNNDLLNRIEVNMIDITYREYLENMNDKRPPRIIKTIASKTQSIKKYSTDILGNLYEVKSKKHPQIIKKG

UniProt Q99ZW2, sequence (Q99ZW2 whole entry): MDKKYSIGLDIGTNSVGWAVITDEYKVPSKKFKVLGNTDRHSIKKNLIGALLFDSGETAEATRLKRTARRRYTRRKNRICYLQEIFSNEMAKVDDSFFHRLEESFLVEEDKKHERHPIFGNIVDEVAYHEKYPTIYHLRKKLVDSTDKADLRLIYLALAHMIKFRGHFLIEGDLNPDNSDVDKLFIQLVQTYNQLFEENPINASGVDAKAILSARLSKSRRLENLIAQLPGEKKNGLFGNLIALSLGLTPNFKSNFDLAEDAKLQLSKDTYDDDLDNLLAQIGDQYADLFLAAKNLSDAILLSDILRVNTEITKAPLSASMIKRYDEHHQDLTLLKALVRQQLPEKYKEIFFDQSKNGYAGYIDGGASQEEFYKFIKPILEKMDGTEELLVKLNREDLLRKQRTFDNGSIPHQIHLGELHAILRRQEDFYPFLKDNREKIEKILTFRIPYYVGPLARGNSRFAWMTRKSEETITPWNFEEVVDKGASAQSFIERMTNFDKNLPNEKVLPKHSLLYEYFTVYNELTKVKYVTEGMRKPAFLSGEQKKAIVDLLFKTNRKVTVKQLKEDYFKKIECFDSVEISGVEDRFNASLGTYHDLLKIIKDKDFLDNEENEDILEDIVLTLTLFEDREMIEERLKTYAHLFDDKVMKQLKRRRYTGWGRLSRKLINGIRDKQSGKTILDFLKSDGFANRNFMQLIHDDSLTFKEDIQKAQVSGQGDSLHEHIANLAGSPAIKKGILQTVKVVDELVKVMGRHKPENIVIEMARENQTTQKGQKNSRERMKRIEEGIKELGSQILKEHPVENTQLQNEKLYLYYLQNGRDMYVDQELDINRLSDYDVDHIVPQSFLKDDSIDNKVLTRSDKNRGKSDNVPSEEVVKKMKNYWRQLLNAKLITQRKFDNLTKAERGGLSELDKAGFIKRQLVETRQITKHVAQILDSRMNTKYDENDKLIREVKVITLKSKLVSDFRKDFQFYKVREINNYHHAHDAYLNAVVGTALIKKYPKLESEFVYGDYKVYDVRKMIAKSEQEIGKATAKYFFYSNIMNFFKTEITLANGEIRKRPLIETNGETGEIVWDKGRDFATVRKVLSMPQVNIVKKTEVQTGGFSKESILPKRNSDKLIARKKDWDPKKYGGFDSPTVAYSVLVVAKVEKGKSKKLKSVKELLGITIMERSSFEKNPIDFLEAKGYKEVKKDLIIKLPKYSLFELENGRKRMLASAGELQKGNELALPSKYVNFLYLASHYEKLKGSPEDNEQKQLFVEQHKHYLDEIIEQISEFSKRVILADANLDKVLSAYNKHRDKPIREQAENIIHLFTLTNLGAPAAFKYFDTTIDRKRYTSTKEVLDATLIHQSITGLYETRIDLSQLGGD

AcrIIA4 anti-CRISPR protein
inhibition of Cas9 cleavage activity in the quenched FRET fluorescence assay [1]: < 0.03 µM | inhibition of Cas9 cleavage activity in the quenched FRET fluorescence assay [2]: > 10 µM

AcrIIC1 anti-CRISPR protein
inhibition of Cas9 cleavage activity in the quenched FRET fluorescence assay [1]: > 10 µM | inhibition of Cas9 cleavage activity in the quenched FRET fluorescence assay [2]: > 10 µM
